# Data reported in US20050085421A1.
# Target: GHSR-1a
# Assay: 125I-ghrelin saturation binding on GHSR-1a membranes (typical value of membrane stock)
substance,measurement,value
125I-ghrelin (peptide),Bmax,6 fmol/µg
